Conditions in all cases: scale: % of the maximum spliced product formation
Assay [1] addresses split mCherry-split intein C-terminal chimeric protein, IMPDH-1 intein split at site S2.
In assay [2] the target is split mCherry-split intein C-terminal chimeric protein, NrdJ-1 intein split at site S2.
Assay [3] has as its target split mCherry-split intein C-terminal chimeric protein, SspGyrB intein split at site S2.
Assay [4] concerns the target split mCherry-split intein C-terminal chimeric protein, gp41-1 intein split at site S2.
The target in assay [5] is split mCherry-split intein C-terminal chimeric protein, gp41-8 intein split at site S2.

As to “split mCherry-split intein N-terminal chimeric protein, IMPDH-1 intein split at site S2 (domain or fragment)”, the in vitro trans-splicing of mixed lysates (room temperature, 100 mM Tris-HCl pH 9.0, 100 mM NaCl, 2 mM DTT): spliced mCherry by Western blot, share of the maximum spliced product within 1 h in assay [1] is over 75.

In assay [2], “split mCherry-split intein N-terminal chimeric protein, NrdJ-1 intein split at site S2 (domain or fragment)” came in with an in vitro trans-splicing of mixed lysates (room temperature, 100 mM Tris-HCl pH 9.0, 100 mM NaCl, 2 mM DTT): spliced mCherry by Western blot, share of the maximum spliced product within 1 h of over 75.

“split mCherry-split intein N-terminal chimeric protein, SspGyrB intein split at site S2 (domain or fragment)” returned an in vitro trans-splicing of mixed lysates (room temperature, 100 mM Tris-HCl pH 9.0, 100 mM NaCl, 2 mM DTT): spliced mCherry by Western blot, share of the maximum spliced product within 1 h in assay [3] of over 75.

“split mCherry-split intein N-terminal chimeric protein, gp41-1 intein split at site S2 (domain or fragment)” had an in vitro trans-splicing of mixed lysates (room temperature, 100 mM Tris-HCl pH 9.0, 100 mM NaCl, 2 mM DTT): spliced mCherry by Western blot, share of the maximum spliced product within 1 h in assay [4] of over 75.

As to “split mCherry-split intein N-terminal chimeric protein, gp41-8 intein split at site S2 (domain or fragment)”, the in vitro trans-splicing of mixed lysates (room temperature, 100 mM Tris-HCl pH 9.0, 100 mM NaCl, 2 mM DTT): spliced mCherry by Western blot, share of the maximum spliced product within 1 h in assay [5] is over 75.

Values taken from PMC7090010.
